This experiment has as its target 人IL-11Rα (全长基因, stably expressed on STAT3-luc HEK293 cells) (human) (UniProt Q14626). Nature of the experiment: cell-based or functional assay.

Here are results for 1 substance from patent CN116510007A.

Sequence of UniProt Q14626 (Q14626 23-422): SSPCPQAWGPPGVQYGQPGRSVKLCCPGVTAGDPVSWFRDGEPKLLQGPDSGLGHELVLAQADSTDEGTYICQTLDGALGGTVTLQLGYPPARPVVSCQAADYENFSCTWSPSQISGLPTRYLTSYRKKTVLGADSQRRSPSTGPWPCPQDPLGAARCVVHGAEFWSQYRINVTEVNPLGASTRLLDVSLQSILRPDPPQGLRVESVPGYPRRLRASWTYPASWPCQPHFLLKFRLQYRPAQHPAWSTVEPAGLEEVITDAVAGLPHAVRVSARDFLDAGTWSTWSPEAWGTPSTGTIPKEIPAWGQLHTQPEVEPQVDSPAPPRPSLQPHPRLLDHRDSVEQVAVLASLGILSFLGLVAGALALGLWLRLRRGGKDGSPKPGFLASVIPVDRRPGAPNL

Substance IL-11 (ligand) showed an IL-11刺激STAT3报告基因转录表达的EC50 of 0.11 ng/mL.
